A short description of data set [1]: Enzyme activity ratio (Y1)=Vmax1/Vmax2 of conversion enzyme (Lineweaver-Burk). It is filed as biochemical. An excerpt: In the present invention, in the case where ribonucleoside diphosphate conversion enzyme (D) is used, an enzyme activity ratio (Y1) calculated from the following formula (1) using enzyme activity Vmax1 and enzyme activity Vmax2 described below is preferably not lower than 0.1 in terms of efficient polysaccharide production and efficient use of the substrate (ribonucleoside diphosphate-monosaccharide (A)). Enzyme activity ratio (Y1)=Vmax1/Vmax2 (1) • Enzyme activity Vmax1: the enzyme activity of ribonucleoside diphosphate conversion enzyme (D) on ribonucleoside diphosphate. • Enzyme activity Vmax2: the enzyme activity of ribonucleoside diphosphate conversion enzyme (D) on ribonucleoside diphosphate-monosaccharide (A).
An enzyme reaction solution (II) containing specific amounts of substrate (ribonucleoside diphosphate or uridine diphosphate-monosaccharide (A)), enzyme (polysaccharide synthase (B) or ribonucleoside diphosphate conversion enzyme (D)), pH adjuster (K), and water is prepared, which is adjusted to a specific temperature and a specific pH. • Phosphate-containing compound (F) is added, if necessary, to the enzyme reaction solution (II) if the enzyme to be used is (D4). Reducing agent (d6) is added if the enzyme is (D6), and raw material (d7) of nucleotide sugar is added if the enzyme is (D7).
After preparation of the enzyme reaction solution (II), it is allowed to stand for enzyme reaction for 1 minute to 100 hours. Next, the amount (X) of the reaction product obtained from the reaction is measured to determine the initial enzyme reaction velocity v. Likewise, the initial enzyme reaction velocity v is determined, using the enzyme reaction solution (II) having a different substrate concentration. A Lineweaver-Burk plot is generated from the above-obtained initial enzyme reaction velocity v and substrate concentration, and the enzyme activity Vmax is determined therefrom.
The enzyme activity Vmax (M/s) is determined using Lineweaver-Burk plot derived from Michaelis-Menten kinetics. […]
In the above measurement, the result determined using ribonucleoside diphosphate conversion enzyme (D) as an enzyme and ribonucleoside diphosphate as a substrate represents Vmax1, and the result determined using ribonucleoside diphosphate conversion enzyme (D) as an enzyme and ribonucleoside diphosphate-monosaccharide (A) as a substrate represents Vmax2. In the case where two or more types of ribonucleoside diphosphate-monosaccharide (A) are used, Vmax2 is determined for each ribonucleoside diphosphate-monosaccharide (A). The enzyme activity ratio (Y1) is also determined for each type from formula (1) using each Vmax2. […]

Data set [2] in a line: Specific activity of ribonucleoside diphosphate conversion enzyme solutions (TLC, UV 260 nm). The settings on record: 1 mM uridine diphosphate, 30° C., pH 7.0, with the co-substrate of each enzyme. Type of data set: biochemical. How it is done:
Reaction solution (2) was prepared by adding 10 μL of 1 M sucrose aqueous solution and 10 μL of sucrose synthase aqueous solution (D7-1) to 1 mL of aqueous solution R (50 mM phosphate buffer (pH of 7.0) containing 100 mM sodium chloride, 10 mM magnesium chloride, and 1 mM uridine diphosphate). Three such reaction solutions (2) were prepared and allowed to react at 30° C. for 5 minutes, 10 minutes, and 15 minutes, respectively. As for the amount of compound (C-7) as the reaction product (uridine diphosphate-glucose), the reaction product was developed on TLC (PEI-Cellulose plate available from Sigma-Aldrich Corporation, hereinafter the same) (developing solvent: an aqueous solution containing 1 M LiCl and 1 M formic acid, hereinafter the same), and detected with a UV light (260 nm). The specific activity of sucrose synthase aqueous solution (D7-1) was calculated to be 0.3 U/μL from the relationship between the yield of compound (C-7) and the reaction time.
Reaction solution (3) was prepared by adding 0.1 mg of reduced thioredoxin and 10 μL of ribonucleotide diphosphate reductase aqueous solution (D6-1) to 1 mL of aqueous solution R. Three such reaction solutions (3) were prepared and allowed to react at 30° C. for 5 minutes, 10 minutes, and 15 minutes, respectively. As for the amount of compound (C-6) as the reaction product (deoxyuridine diphosphate), the reaction product was developed on TLC and detected with a UV light (260 nm). The specific activity of ribonucleotide diphosphate reductase aqueous solution (D6-1) was calculated to be 0.3 U/μL from the relationship between the yield of compound (C-6) and the reaction time. […]
Reaction solution (5) was prepared by adding 10 μL of nucleotidase aqueous solution (D3-1) to 1 mL of aqueous solution R. Three such reaction solutions (5) were prepared and allowed to react at 30° C. for 5 minutes, 10 minutes, and 15 minutes, respectively. For the amount of compound (C-3) as the reaction product (uridine monophosphate), the reaction product was developed on TLC and detected with a UV light (260 nm). […]

The values below come from patent publication US9670514B2, “Method for producing polysaccharide” (SANYO CHEMICAL INDUSTRIES, LTD., priority 2011, dated 2017).

In the case of “sucrose synthase aqueous solution (D7-1): sucrose synthase, SEQ ID NO: 2, derived from Vicia faba”, the “enzyme activity ratio (Y1)” value in data set [1] (Vmax2 substrate uridine diphosphate-N-acetylglucosamine) and in data set [1] (Vmax2 substrate uridine diphosphate-glucuronic acid) was at least 10 in each case. Besides, in data set [2], the specific activity is recorded as 0.3 U/μL.

Turning to “pyruvate kinase aqueous solution (D4-1-1): pyruvate kinase, SEQ ID NO: 4, derived from Escherichia coli”, the “enzyme activity ratio (Y1) of each type” value in data set [1] (Vmax2 substrates UDP-glucuronic acid, -N-acetylglucosamine, -N-acetylgalactosamine, -glucose, -mannose, -glucosamine) is at least 10. For the same substance, in data set [2], the specific activity is reported as 0.3 U/μL.

As to “polyribonucleotide nucleotidyltransferase aqueous solution (D5-1): polyribonucleotide nucleotidyltransferase, SEQ ID NO: 6, derived from Escherichia coli”, in data set [1] (Vmax2 substrates uridine diphosphate-glucuronic acid and uridine diphosphate-N-acetylglucosamine), the “enzyme activity ratio (Y1) of each type” value is reported as at least 10. Besides, the specific activity in data set [2] is listed as 0.3 U/μL.
